Source: patent US20110014193A1 (JURIDICAL FDN THE CHEMO SERO THERAPEUTIC RES INST, published 2011)
Like-named read-outs stand apart in the source and are kept apart here. One block for each binder: values may come before it.

Key:
Assay in all cases: cell-based or functional assay
[1] = molecular target: T1, human α9 integrin molecule (human, UniProt Q13797 30-1035; P05556 21-798)
[2] = molecular target: T1, human α9 integrin molecule; remark: listed apart in the source
[3] = molecular target: T1, human α9 integrin molecule; remark: listed apart in the source
[4] = molecular target: T1, human α9 integrin molecule; remark: listed apart in the source
[5] = molecular target: T1, human α9 integrin molecule; remark: listed apart in the source
[6] = molecular target: T1, human α9 integrin molecule; remark: listed apart in the source
[7] = molecular target: T1, human α9 integrin molecule; remark: listed apart in the source
[8] = molecular target: T1, human α9 integrin molecule; remark: listed apart in the source
[9] = molecular target: T1, human α9 integrin molecule; remark: listed apart in the source

T1 sequence (Q13797 30-1035 limits assumed, chain 1 of 2): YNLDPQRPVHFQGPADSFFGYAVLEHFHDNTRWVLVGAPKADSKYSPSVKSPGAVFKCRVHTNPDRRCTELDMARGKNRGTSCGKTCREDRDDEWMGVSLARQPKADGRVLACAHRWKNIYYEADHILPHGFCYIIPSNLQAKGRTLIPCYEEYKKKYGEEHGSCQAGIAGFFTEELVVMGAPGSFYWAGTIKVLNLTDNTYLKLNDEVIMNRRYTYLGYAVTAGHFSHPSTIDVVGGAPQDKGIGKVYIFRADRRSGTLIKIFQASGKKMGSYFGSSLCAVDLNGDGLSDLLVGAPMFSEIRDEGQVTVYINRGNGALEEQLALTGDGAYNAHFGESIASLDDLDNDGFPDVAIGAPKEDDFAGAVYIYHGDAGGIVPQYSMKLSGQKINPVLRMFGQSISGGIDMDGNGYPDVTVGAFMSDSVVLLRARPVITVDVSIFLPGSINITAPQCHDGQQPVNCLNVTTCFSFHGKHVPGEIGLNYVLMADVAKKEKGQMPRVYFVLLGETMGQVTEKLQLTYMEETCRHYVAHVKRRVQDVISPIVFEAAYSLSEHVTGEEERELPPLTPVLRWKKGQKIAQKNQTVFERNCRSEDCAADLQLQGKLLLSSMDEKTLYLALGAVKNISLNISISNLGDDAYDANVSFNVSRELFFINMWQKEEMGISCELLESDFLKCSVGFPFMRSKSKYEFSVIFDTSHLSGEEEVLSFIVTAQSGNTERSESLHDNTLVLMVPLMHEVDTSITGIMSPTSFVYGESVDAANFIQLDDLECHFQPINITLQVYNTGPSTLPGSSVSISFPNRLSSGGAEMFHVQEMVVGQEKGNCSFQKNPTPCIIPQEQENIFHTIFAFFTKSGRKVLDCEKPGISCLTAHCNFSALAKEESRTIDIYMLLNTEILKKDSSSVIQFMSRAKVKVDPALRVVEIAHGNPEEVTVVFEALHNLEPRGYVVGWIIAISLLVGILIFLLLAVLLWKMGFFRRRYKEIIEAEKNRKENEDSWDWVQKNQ
T1 sequence (P05556 21-798 limits assumed, chain 2 of 2): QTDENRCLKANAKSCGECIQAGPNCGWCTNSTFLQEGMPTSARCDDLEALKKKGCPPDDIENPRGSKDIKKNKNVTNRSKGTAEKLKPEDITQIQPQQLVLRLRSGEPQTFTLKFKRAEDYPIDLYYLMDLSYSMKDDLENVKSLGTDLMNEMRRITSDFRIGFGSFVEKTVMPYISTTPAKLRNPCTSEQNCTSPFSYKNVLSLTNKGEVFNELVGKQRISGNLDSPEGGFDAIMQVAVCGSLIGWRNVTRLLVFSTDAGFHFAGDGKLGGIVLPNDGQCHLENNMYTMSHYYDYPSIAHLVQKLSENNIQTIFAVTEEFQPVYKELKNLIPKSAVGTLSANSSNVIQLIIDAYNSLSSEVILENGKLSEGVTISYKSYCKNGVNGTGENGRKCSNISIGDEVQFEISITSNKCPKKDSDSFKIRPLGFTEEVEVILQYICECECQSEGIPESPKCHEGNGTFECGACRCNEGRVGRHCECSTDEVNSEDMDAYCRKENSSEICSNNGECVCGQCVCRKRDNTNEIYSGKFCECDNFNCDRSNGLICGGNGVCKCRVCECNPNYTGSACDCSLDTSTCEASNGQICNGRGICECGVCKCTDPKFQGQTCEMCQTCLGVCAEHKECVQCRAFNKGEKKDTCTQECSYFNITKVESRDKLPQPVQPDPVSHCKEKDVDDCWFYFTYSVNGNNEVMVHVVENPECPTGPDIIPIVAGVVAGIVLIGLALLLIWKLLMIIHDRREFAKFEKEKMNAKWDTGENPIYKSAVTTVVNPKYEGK

B3: RY9A2v501 antibody (antibody, V domains shown)
VH: QVQLVQSGAEVKKPGSSVKMSCKASGYTLTTYWMHWVKQRPGQGLEWIGYINPSSGYTEYNQKFKDRVTITADKSTSTAYMELSSLRSEDTAVYYCAIYGDYGDFYFDYWGQGTTVTVSS
VL: DIQMTQSPSSLSASVGDRVTITCKASQSVNTDVAWYQQKPGKAPKLLIYFASNHYTGVPSRFSGSGSGTDFTFTISSLQPEDIATYYCRQDYSSPFTFGGGTKVEIKR
IC50 (µg/mL), cell adhesion inhibition test, SW480/hα9 cells on nOPN-RAA [3]: 0.054 µg/mL

B4: RY9A2v11(M34L)012 antibody (antibody, human IgG1, kappa, V domains shown)
VH: QVQLVQSGAEVKKPGSSVKMSCKASGYTLTTYWLHWVKQRPGQGLEWIGYINPSSGYTEYNQKFQGRVTITADKSTSTAYMELSSLRSEDTAVYYCAIYGDYGDFYFDYWGQGTTVTVSS
VL: DIQMTQSPSSLSASVGDRVTITCRASQSVNTDVAWYQQKPGKAPKLLIYFASNHYTGVPSRFSGSGSGTDFTFTISSLQPEDIATYYCRQDYSSPFTFGGGTKVEIKR
specific activity (IC50 relative to mouse Y9A2 = 1), cell adhesion inhibition test on nOPN-RAA [7]: 0.23 ratio of IC50 to mouse Y9A2
specific activity (IC50 relative to mouse Y9A2 = 1), cell adhesion inhibition test on human Tenascin C-RAA [8]: 0.35 ratio of IC50 to mouse Y9A2
specific activity (IC50 relative to mouse Y9A2 = 1), cell adhesion inhibition test on human VCAM-1 [8]: 0.44 ratio of IC50 to mouse Y9A2
inhibitory rate (%) of migration of SW480/hα9 cell against nOPN-RAA, antibody at 5 µg/mL [9]: 84%

B5: RY9A2v5(WE)01 antibody (antibody, V domains shown)
VH: QVQLVQSGAEVKKPGSSVKMSCKASGYTLTTYWMHWVKQRPGQGLEWIGYINPSSGYTEYNQKFKDRVTITADKSTSTAYMELSSLRSEDTAVYYCAIYGDYGWEYFDYWGQGTTVTVSS
VL: DIQMTQSPSSLSASVGDRVTITCKASQSVNTDVAWYQQKPGKAPKLLIYFASNHYTGVPSRFSGSGSGTDFTFTISSLQPEDIATYYCRQDYSSPFTFGGGTKVEIKR
IC50 (µg/mL), cell adhesion inhibition test, SW480/hα9 cells on nOPN-RAA [6]: 0.022 µg/mL

B6: RY9A2v5(AW)01 antibody (antibody, V domains shown)
VH: QVQLVQSGAEVKKPGSSVKMSCKASGYTLTTYWMHWVKQRPGQGLEWIGYINPSSGYTEYNQKFKDRVTITADKSTSTAYMELSSLRSEDTAVYYCAIYGDYGAWYFDYWGQGTTVTVSS
VL: DIQMTQSPSSLSASVGDRVTITCKASQSVNTDVAWYQQKPGKAPKLLIYFASNHYTGVPSRFSGSGSGTDFTFTISSLQPEDIATYYCRQDYSSPFTFGGGTKVEIKR
IC50 (µg/mL), cell adhesion inhibition test, SW480/hα9 cells on nOPN-RAA [6]: 0.015 µg/mL

B7: RY9A2v5(AL)01 antibody (antibody, V domains shown)
VH: QVQLVQSGAEVKKPGSSVKMSCKASGYTLTTYWMHWVKQRPGQGLEWIGYINPSSGYTEYNQKFKDRVTITADKSTSTAYMELSSLRSEDTAVYYCAIYGDYGALYFDYWGQGTTVTVSS
VL: DIQMTQSPSSLSASVGDRVTITCKASQSVNTDVAWYQQKPGKAPKLLIYFASNHYTGVPSRFSGSGSGTDFTFTISSLQPEDIATYYCRQDYSSPFTFGGGTKVEIKR
IC50 (µg/mL), cell adhesion inhibition test, SW480/hα9 cells on nOPN-RAA [6]: 0.032 µg/mL

B8: RY9A2v5(SW)01 antibody (antibody, V domains shown)
VH: QVQLVQSGAEVKKPGSSVKMSCKASGYTLTTYWMHWVKQRPGQGLEWIGYINPSSGYTEYNQKFKDRVTITADKSTSTAYMELSSLRSEDTAVYYCAIYGDYGSWYFDYWGQGTTVTVSS
VL: DIQMTQSPSSLSASVGDRVTITCKASQSVNTDVAWYQQKPGKAPKLLIYFASNHYTGVPSRFSGSGSGTDFTFTISSLQPEDIATYYCRQDYSSPFTFGGGTKVEIKR
IC50 (µg/mL), cell adhesion inhibition test, SW480/hα9 cells on nOPN-RAA [6]: 0.035 µg/mL

B9: RY9A2v5(M34L)01 antibody (antibody, V domains shown)
VH: QVQLVQSGAEVKKPGSSVKMSCKASGYTLTTYWLHWVKQRPGQGLEWIGYINPSSGYTEYNQKFKDRVTITADKSTSTAYMELSSLRSEDTAVYYCAIYGDYGDFYFDYWGQGTTVTVSS
VL: DIQMTQSPSSLSASVGDRVTITCKASQSVNTDVAWYQQKPGKAPKLLIYFASNHYTGVPSRFSGSGSGTDFTFTISSLQPEDIATYYCRQDYSSPFTFGGGTKVEIKR
IC50 (µg/mL), cell adhesion inhibition test, SW480/hα9 cells on nOPN-RAA [5]: 0.021 µg/mL

B12: RY9A2v5(M34I)01 antibody (antibody, V domains shown)
VH: QVQLVQSGAEVKKPGSSVKMSCKASGYTLTTYWIHWVKQRPGQGLEWIGYINPSSGYTEYNQKFKDRVTITADKSTSTAYMELSSLRSEDTAVYYCAIYGDYGDFYFDYWGQGTTVTVSS
VL: DIQMTQSPSSLSASVGDRVTITCKASQSVNTDVAWYQQKPGKAPKLLIYFASNHYTGVPSRFSGSGSGTDFTFTISSLQPEDIATYYCRQDYSSPFTFGGGTKVEIKR
IC50 (µg/mL), cell adhesion inhibition test, SW480/hα9 cells on nOPN-RAA [5]: 0.024 µg/mL

B15: RY9A2v5(IAW)01 antibody (antibody, human IgG1, kappa, V domains shown)
VH: QVQLVQSGAEVKKPGSSVKMSCKASGYTLTTYWIHWVKQRPGQGLEWIGYINPSSGYTEYNQKFKDRVTITADKSTSTAYMELSSLRSEDTAVYYCAIYGDYGAWYFDYWGQGTTVTVSS
VL: DIQMTQSPSSLSASVGDRVTITCKASQSVNTDVAWYQQKPGKAPKLLIYFASNHYTGVPSRFSGSGSGTDFTFTISSLQPEDIATYYCRQDYSSPFTFGGGTKVEIKR
specific activity (IC50 relative to mouse Y9A2 = 1), cell adhesion inhibition test on nOPN-RAA [7]: 0.29 ratio of IC50 to mouse Y9A2
specific activity (IC50 relative to mouse Y9A2 = 1), cell adhesion inhibition test on human Tenascin C-RAA [8]: 0.44 ratio of IC50 to mouse Y9A2
specific activity (IC50 relative to mouse Y9A2 = 1), cell adhesion inhibition test on human VCAM-1 [8]: 1 ratio of IC50 to mouse Y9A2
inhibitory rate (%) of migration of SW480/hα9 cell against nOPN-RAA, antibody at 5 µg/mL [9]: 109%

Second part, the binder after the results:

average cell adhesion inhibitory activity IC50, SW480/hα9 cells on human Tenascin C-RAA [1]: 0.041 µg/mL
average cell adhesion inhibitory activity IC50, SW480/hα9 cells on human VCAM-1/Ig [1]: 0.077 µg/mL
average of IC50 values, cell adhesion inhibition test, SW480/hα9 cells on nOPN-RAA [1]: 0.039 µg/mL
IC50 (µg/mL), cell adhesion inhibition test, SW480/hα9 cells on nOPN-RAA [2]: 0.039 µg/mL
IC50 (µg/mL), cell adhesion inhibition test, SW480/hα9 cells on nOPN-RAA [3]: 0.07 µg/mL
IC50 (µg/mL), cell adhesion inhibition test, SW480/hα9 cells on nOPN-RAA [4]: 0.025 µg/mL
IC50 (µg/mL), cell adhesion inhibition test, SW480/hα9 cells on nOPN-RAA [5]: 0.049 µg/mL
IC50 (µg/mL), cell adhesion inhibition test, SW480/hα9 cells on nOPN-RAA; value in parentheses, measured simultaneously with RY9A2v5(AL)01 [6]: 0.052 µg/mL
IC50 (µg/mL), cell adhesion inhibition test, SW480/hα9 cells on nOPN-RAA; value in parentheses, measured simultaneously with RY9A2v5(AW)01 [6]: 0.037 µg/mL
IC50 (µg/mL), cell adhesion inhibition test, SW480/hα9 cells on nOPN-RAA; value in parentheses, measured simultaneously with RY9A2v5(SW)01 [6]: 0.052 µg/mL
IC50 (µg/mL), cell adhesion inhibition test, SW480/hα9 cells on nOPN-RAA; value in parentheses, measured simultaneously with RY9A2v5(WE)01 [6]: 0.052 µg/mL
specific activity (IC50 relative to mouse Y9A2 = 1), cell adhesion inhibition test on nOPN-RAA [7]: 1 ratio of IC50 to mouse Y9A2
specific activity (IC50 relative to mouse Y9A2 = 1), cell adhesion inhibition test on human Tenascin C-RAA [8]: 1 ratio of IC50 to mouse Y9A2
specific activity (IC50 relative to mouse Y9A2 = 1), cell adhesion inhibition test on human VCAM-1 [8]: 1 ratio of IC50 to mouse Y9A2
inhibitory rate (%) of migration of SW480/hα9 cell against nOPN-RAA, antibody at 5 µg/mL [9]: 28%
B1: mouse Y9A2 antibody (antibody, V domains shown)
VH: QVQLQQSGAELANPGASVKMSCKASGYTLTTYWMHWVKQRPGQGLEWIGYINPSSGYTEYNQKFKDKATLTADKSSSTAYMQLTSLTSEDSAVYYCAIYGDYGDFYFDYWGQGTTLTVSS
VL: SIVMTQTPKFLLVSAGDRVTMTCKASQSVNTDVAWFQQKPGQSPKLLIYFASNHYTGVPDRFTGSGYGTDFTFTISTVQAEDLAIYFCRQDYSSPFTFGGGTKLEIKR

IC50 (µg/mL), cell adhesion inhibition test, SW480/hα9 cells on nOPN-RAA [2]: 0.038 µg/mL
B2: chimeric Y9A2 antibody (antibody, V domains shown)
VH: QVQLQQSGAELANPGASVKMSCKASGYTLTTYWMHWVKQRPGQGLEWIGYINPSSGYTEYNQKFKDKATLTADKSSSTAYMQLTSLTSEDSAVYYCAIYGDYGDFYFDYWGQGTTLTVSS
VL: SIVMTQTPKFLLVSAGDRVTMTCKASQSVNTDVAWFQQKPGQSPKLLIYFASNHYTGVPDRFTGSGYGTDFTFTISTVQAEDLAIYFCRQDYSSPFTFGGGTKLEIKR

specific activity (IC50 relative to mouse Y9A2 = 1), cell adhesion inhibition test on nOPN-RAA [7]: 0.23 ratio of IC50 to mouse Y9A2
specific activity (IC50 relative to mouse Y9A2 = 1), cell adhesion inhibition test on human Tenascin C-RAA [8]: 0.26 ratio of IC50 to mouse Y9A2
specific activity (IC50 relative to mouse Y9A2 = 1), cell adhesion inhibition test on human VCAM-1 [8]: 0.95 ratio of IC50 to mouse Y9A2
inhibitory rate (%) of migration of SW480/hα9 cell against nOPN-RAA, antibody at 5 µg/mL [9]: 86%
B10: RY9A2v12(M34L)012 antibody (antibody, human IgG1, kappa, V domains shown)
VH: QVQLVQSGAEVKKPGSSVKVSCKASGYTLTTYWLHWVRQAPGQGLEWMGYINPSSGYTEYNQKFQGRVTITADKSTSTAYMELSSLRSEDTAVYYCAIYGDYGDFYFDYWGQGTTVTVSS
VL: DIQMTQSPSSLSASVGDRVTITCRASQSVNTDVAWYQQKPGKAPKLLIYFASNHYTGVPSRFSGSGSGTDFTFTISSLQPEDIATYYCRQDYSSPFTFGGGTKVEIKR

IC50 (µg/mL), cell adhesion inhibition test, SW480/hα9 cells on nOPN-RAA [4]: 0.008 µg/mL
B11: RY9A2v11012 antibody (antibody, V domains shown)
VH: QVQLVQSGAEVKKPGSSVKMSCKASGYTLTTYWMHWVKQRPGQGLEWIGYINPSSGYTEYNQKFQGRVTITADKSTSTAYMELSSLRSEDTAVYYCAIYGDYGDFYFDYWGQGTTVTVSS
VL: DIQMTQSPSSLSASVGDRVTITCRASQSVNTDVAWYQQKPGKAPKLLIYFASNHYTGVPSRFSGSGSGTDFTFTISSLQPEDIATYYCRQDYSSPFTFGGGTKVEIKR

IC50 (µg/mL), cell adhesion inhibition test, SW480/hα9 cells on nOPN-RAA [3]: 0.058 µg/mL
B13: RY9A2v801 antibody (antibody, V domains shown)
VH: QVQLVQSGAEVKKPGSSVKVSCKASGYTLTTYWMHWVRQAPGQGLEWMGYINPSSGYTEYNQKFKDRVTITADKSTSTAYMELSSLRSEDTAVYYCAIYGDYGDFYFDYWGQGTTVTVSS
VL: DIQMTQSPSSLSASVGDRVTITCKASQSVNTDVAWYQQKPGKAPKLLIYFASNHYTGVPSRFSGSGSGTDFTFTISSLQPEDIATYYCRQDYSSPFTFGGGTKVEIKR

IC50 (µg/mL), cell adhesion inhibition test, SW480/hα9 cells on nOPN-RAA [4]: 0.012 µg/mL
B14: RY9A2v11011 antibody (antibody, V domains shown)
VH: QVQLVQSGAEVKKPGSSVKMSCKASGYTLTTYWMHWVKQRPGQGLEWIGYINPSSGYTEYNQKFQGRVTITADKSTSTAYMELSSLRSEDTAVYYCAIYGDYGDFYFDYWGQGTTVTVSS
VL: DIQMTQSPSSLSASVGDRVTITCQASQSVNTDVAWYQQKPGKAPKLLIYFASNHYTGVPSRFSGSGSGTDFTFTISSLQPEDIATYYCRQDYSSPFTFGGGTKVEIKR
